The source of these data is patent US8637043B2, “Compositions useful as ligands for the formyl peptide receptor like 1 receptor and methods of use thereof” (Chemocentryx, Inc., priority 2001, dated 2014).

“And” between values parts separate entries of the source, which are not always exact repeats. Equal entries are not always repeated. Where two headings read alike, the source gives them in different places. Ends that are not written are not given here.

The subject of one test is immature Dendritic Cells. Kind of test: Calcium mobilization, immature dendritic cells. Format: cell-based, human. As for the experimental part: Human recombinant CKβ8-1(25-116) chemokine was obtained from R&D Systems (Minneapolis, Minn.). The peptide SHAAGtides SEQ ID NO:1 and SEQ ID NO:6 and a control protein (the reverse sequence of SEQ ID NO:1) were synthesized and HPLC-purified using routine techniques as described in Sambrook et al., 1989, and Ausubel et al., 1999.
Immature DCs were derived by culturing CD14+ monocytes in the presence of GM-CSF and IL4. Briefly, monocytes were cultured in a T-175 flask at 10^6 cells/ml in RPMI/10% FCS. Recombinant human GM-CSF and IL4 were added on day 0, 2, 4 and 6 to a final concentration of 1000 u/ml and 500 u/ml, respectively. Cells were harvested on day 7 as immature DCs and characterized for surface protein expression by FACS analysis. DC maturation was carried out by culturing day 6 immature DCs in macrophage-conditioned medium (MCM). Briefly, day 6 immature DCs were harvested by centrifugation and resuspended in MCM at 10^6 cells/ml. The medium was supplemented with 1000 u/ml of GM-CSF and 500 u/ml IL4. After three more days of culture, cells were harvested as mature DCs and characterized by surface protein expression flow cytometry.
Ca^2+ mobilization responses were performed using an intracellular ratiometric fluorescent dye, Indo-1. Cells were loaded with Indo-1/AM (3 μM; Molecular Probes (Eugene, Oreg.)) in culture medium (45 min, 20° C., 10^7 cells/mi). After dye loading, cells were washed once (10 ml PBS) and resuspended at 10^6 cell/ml in HBSS containing 1% FBS. Cytosolic [Ca^2+] release was determined using excitation at 350 nm using a Photon Technology International fluorimeter (excitation at 350 nm, ratioed dual emission at 400 and 490 nm).
(A change in cytosolic calcium serves as a functional read-out for many receptors and channels.)

Another test concerns neutrophils. Kind of test: Cross-desensitization with leukotactin, neutrophils. Format: cell-based, human. As for the experimental part:
In cross-desensitization tests tests, cells were stimulated sequentially with leukotactin and then the chemokines CKβ8(1-99), CKβ8(25-99), CKβ8-1(1-116), and CKβ8-1(25-116). On HEK293-CCR1 transfectants (prepared as in Example 1), leukotactin induced similar patterns of receptor desensitization to all variants.
Similar receptor cross-desensitization tests were performed using both monocytes and neutrophils (prepared as in Example 2).

Another test deals with monocytes. Kind of test: 125I-MIP-1α binding competition, monocytes. Further details: species or system human. As to conditions: for IC50: Monocytes; for MIP-1α displacement on monocytes compared with HEK293-CCR1 cells: comparison in words. The method, then:
The binding characteristics of CCL23 variants was compared in human CCR1 expressing cells. The ability of MIP-1α and the CCL23 variants CKβ8(1-99), CKβ8(25-99), CKβ8-1(1-116) and CKβ8-1(25-116) to compete with ^125I-MIP-1α binding was investigated in HEK293-CCR1 cells (prepared as in Example 1). The cells were incubated with ^125I-labeled MIP-1α (final conc. {dot over (˜)}0.05 nM) in the presence of unlabeled chemokine (3 hours at 4° C.: 25 mM HEPES, 140 mM NaCl, 1 mM CaCl2, 5 mM MgCl2 and 0.2% BSA, adjusted to pH 7.1). Reactions mixtures were aspirated onto PEI-treated GF/B glass filters using a cell harvester (Packard). The filters were washed twice (25 mM HEPES, 500 mM NaCl, 1 mM CaCl2, 5 mM MgCl2, adjusted to pH 7.1). Scintillant (MicroScint-10; 35 μl) was added to dried filters and the filiters counted in a Packard Topcount scintillation counter. Data were analyzed and plotted using Prism software (GraphPad Software, San Diego, Calif.).
Simiar binding competition tests were conducted on monocytes and neutrophils. These cells were prepared as in Example 2.

As to MLWRRKIGPQMTLSHAAY [SEQ ID NO: 6], in the test on immature Dendritic Cells, the calcium flux result is reported as “partially active”.
As for MLWRRKIGPQMTLSHAAG [SEQ ID NO: 1], in the test on immature Dendritic Cells, the calcium flux entry is “partially active”.

B1: CKβ8(25-99): known truncated CKβ8 variant, human recombinant chemokine from R&D Systems (protein, listed as Homo sapiens)
chain: RFHATSADCCISYTPRSIPCSLLESYFETNSECSKPGVIFLTKKGRRFCANPSDKQVQVCMRMLKLDTRIKTRKN
A word on the IC50: it is the midpoint of a concentration-inhibition curve. For B1, the “desensitization by leukotactin prestimulation” value (“desensitization” for short) in the test on neutrophils was “inactive”. In addition, the IC50 at monocytes came to 0.25 nM.

B2: CKβ8-1(25-116): novel NH2-terminal truncated form of CKβ8-1, SEQ ID NO: 16, human recombinant chemokine (protein, listed as Homo sapiens)
chain: MLWRRKIGPQMTLSHAAGFHATSADCCISYTPRSIPCSLLESYFETNSECSKPGVIFLTKKGRRFCANPSDKQVQVCMRMLKLDTRIKTRKN
Regarding B2, the values for the calcium flux result with immature Dendritic Cells and in the test on immature Dendritic Cells (listed as CKβ8-1 (25-116)) were “induces Ca^2+ release” and “partially active”, respectively. The “desensitization” value in the test with neutrophils was “did not desensitize”. The concentration for half-maximal inhibition (IC50) on monocytes is 5 nM and 5.1 nM. For the same molecule, in the test on monocytes, the “MIP-1α displacement on monocytes compared with HEK293-CCR1 cells” value is on record as “higher MIP-1α displacement activities”. In addition, in the test on monocytes (fold higher on monocytes), the “MIP-1α displacement activity on monocytes versus HEK293-CCR1 cells” value is recorded as “over 10 fold”.

B3: CKβ8-1(1-116): alternatively spliced form of CKβ8, 116 amino acids, human recombinant chemokine (protein, listed as Homo sapiens)
chain: RVTKDAETEFMMSKLPLENPVLLDMLWRRKIGPQMTLSHAAGFHATSADCCISYTPRSIPCSLLESYFETNSECSKPGVIFLTKKGRRFCANPSDKQVQVCMRMLKLDTRIKTRKN
As for B3, in the test with neutrophils, the “desensitization” value was “inactive”. For the same molecule, on monocytes, the IC50 is 55 nM and the “MIP-1α displacement on monocytes compared with HEK293-CCR1 cells” value was “higher MIP-1α displacement activities”.
